Measurements published in the supplement of paper PMC9170038.

Test system: MS2 coat protein
Assay: apparent KD of MS2 coat protein; designed switch direction (-1 OFF switch, 1 ON switch): -1; higher = weaker reporter binding
Summary of the method: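 Designed RNA switches with common flanks were made on Illumina chips by stalled E. coli RNA polymerase. Titration with SNAP-549-labelled MS2 coat protein doubled from 0.7 or 1.5 nM up to 3 µM. Apparent KD is each design's median over clusters after curve-fitting normalised fluorescence.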

[1] = input ligand: microRNA oligo, concentration not stated
[2] = Eterna round: R95, input ligand: microRNA oligo, concentration not stated
[3] = Eterna round: R95, input ligand: FMN 200 uM
[4] = Eterna round: R95, input ligand: none

Sequence	apparent KD of MS2 coat protein (input ligand: FMN 200 uM) [µM]	apparent KD of MS2 coat protein [1] [µM]	apparent KD of MS2 coat protein (input ligand: none) [µM]	apparent KD of MS2 coat protein [2] [µM]	apparent KD of MS2 coat protein [3] [µM]	apparent KD of MS2 coat protein [4] [µM]
UGAGUGCUGCGAGGAUAUACAUGAGGAUCACCCAUGUAAUCGUGUGAGGCAAAGCCUCACACGAAGUAGAAGGCGCAGUACUCU [Mat - Exclusion NG 2 - Mod of JL - D17] (Eterna round: R96, puzzle: Exclusion NG 2)	0.016	0.0114	0.0185			
UGAGUGCUGCGAGGAUAUACAUGAGGAUCACCCAUGUAAUCGUGUGAGGCUAUGCCUCACACGAAGUAGAAGGCGCAGUACUCU [Mat - Exclusion NG 2 - Mod of JL - D16] (Eterna round: R96, puzzle: Exclusion NG 2)	0.00998	0.00833	0.00963			
UGAUCUAGCGGAGGAUAUACAUGAGGAUCACCCAUGUAAAUCGCUUUACCGUAGUGAAGCAUCAUGUAGAAGGCCGCUAGAUCU [MOD3 ENG2 3.62 by JL] (Eterna round: R96, puzzle: Exclusion NG 2)	0.0593	0.48	0.592			
UGAUCUAGCGGAGGAUAUACAUGAGGAUCACCCAUGUAGAAUCCAUGACCGUAGUCGUGGAUCGUGUAGAAGGCCGCUAGAUCU [JL ENG2 3.71] (Eterna round: R96, puzzle: Exclusion NG 2)	0.0218	0.009	0.0125			
UGAUCUAGCGGAGGAUAUACAUGAGGAUCACCCAUGUAGAUAACUGCACCGUAGUGUAGUAUUGUGUAGAAGGCCGCUAGAUCU [JL ENG2 3.65] (Eterna round: R96, puzzle: Exclusion NG 2)	0.0268	0.0114	0.0142			
UGAUCUAGCGGAGGAUAUACAUGAGGAUCACCCAUGUAGGAUCCAUGACCGUAGUCGUGGAUCGUGUAGAAGGCCGCUAGAUCU [JL ENG2 3.70] (Eterna round: R96, puzzle: Exclusion NG 2)	0.013	0.00814	0.0131			
UGAUCUAGCGGAGGAUAUACAUGAGGAUCACCCAUGUAGUAGUCUGUACCGUAGUGCAGACUUGUGUAGAAGGCCGCUAGAUCU [JL ENG2 3.61] (Eterna round: R96, puzzle: Exclusion NG 2)	0.0158	0.0108	0.0141			
UGAUCUUUUGUUAGGAUAUGCUGGGUUUUUUCUCAGCAGAAGGGACAUGAGGAUCACCCAUGUUUUGUCAUAAA [Magic-07] (puzzle: Brourd's mod of Exclusion 4)				0.0203		
UGAUCUUUUGUUAGGAUAUGCUGUUUUUUUUUUCAGCAGAAGGGACAUGAGGAUCACCCAUGUUUUGUCAUAAA [Magic-06] (Eterna round: R96, puzzle: Brourd's mod of Exclusion 4)	0.045	0.0241	0.033			
UGAUCUUUUGUUAGGAUAUGCUGUUUUUUUUUUCAGCAGAAGGGACAUGAGGAUCACCCAUGUUUUGUCAUAAA [Magic-06] (puzzle: Brourd's mod of Exclusion 4)				0.0144		
UGAUUGAUUAACAGAUUAUACAUGAGGAUCACCCAUGUAGGUCCUACGUGCACUUUAUGCAGCUCGUCUUAUUCCCA [Sensor-V1 #71] (Eterna round: R97, puzzle: Sensor, turn-off variant 1)	0.0344		0.0365			
UGAUUGUUUACCAGAUUAUACAUGAGGAUCACCCAUGUAGAUCCUACGUGCACGUUAUACAGCUCGUCUUAUUCCCA [Sensor-V1 #74] (Eterna round: R97, puzzle: Sensor, turn-off variant 1)	0.0354		0.0362			
UGAUUGUUUACCAGAUUAUACAUGAGGAUCACCCAUGUAGAUCCUACGUGCACGUUAUGCAGCUCGUCUUAUUCCCA [Sensor-V1 #73] (Eterna round: R97, puzzle: Sensor, turn-off variant 1)	0.0403		0.0441			
UGCAUGUGAGGAUAUGUGUACUGUUUUUUGUUUAGAUGUACACAGAAGGCACAUGAGGAUCACCCAUGUAGUAC [Ex4 - 3 - 33] (puzzle: Exclusion 4)				0.0461		
UGCCAGAAAGGAUAUACAGCCCGGGCGUUCCUGCGAUAUAUACAUGAGGAUCACCCAUGUAGAAGGUUCGGCGG [EX2 C.12] (Eterna round: R97, puzzle: Exclusion 2)	0.0331		0.0285			
UGCGGGCUUCUGAGACCUCACAUGAGGAUCACCCAUGUGCUUGUCUUGUAAGUGGGUAGGUCGUUGGCUGACUCACA (Eterna round: R97, puzzle: Sensor, turn-off variant 1)	0.0182		0.0178			
UGCUGACGAGGAUAUACAUGAGGAUCACCCAUGUUGGUCAAGCGACGAUAGUCGCAAUGUAGAAGGUGUCAGCA [E3/8-B1] (Eterna round: R97, puzzle: Exclusion 3)	0.694		0.114			
UGGCAAGUAGGAUAUUGGGUGUGGGACAUGAGGAUCACCCAUGUGAUCACUCAAUCUCUCCGAGAAGGGCUAAGAA [Araes] (puzzle: Exclusion 5)				0.014		
UGGCUACAUGAGGAUCACCCAUGUCAGGAUAUGCCGUUGAAUUGACAUCGACGUACGGGUAGAAGGGACUGCGU [1st #10] (Eterna round: R97, puzzle: Exclusion 1)	0.05		0.0416			
UGGGUACAUGAGGAUCACCCAUGUGAGGAUAUGCCGGAAGAAUCGCAGAAAUGAGCCAGUAGAAGGCACAAGGG [Eternabot (L2) Solution 100] (Eterna round: R97, puzzle: Exclusion 1)	1.3		1.19			
UGGUAACAUGAGGAUCACCCAUGUCAGGAUAUCAGGAAGAGGAGAGGAGAGGAGAAGAUGAGAAGGGACUAUAU [Excluse me! 12 - Jieux - Exclusion 1] (puzzle: Exclusion 1)				0.0198		
UGGUAACAUGAGGAUCACCCAUGUCAGGAUAUCAGUAAGAAUAGAUUAGAUUAGAAUAUGAGAAGGGACUAUAU [Excluse me! 4 - Jieux - Exclusion 1] (puzzle: Exclusion 1)				0.0309		
UGUAAGCUAGGAUAUGCUUUGGGAAAGCAUUCCUUCGAUAAACUUGAGGAUCACCCAAGUAGAAGGAGCUUACA [salish99_ex2_r4_005] (Eterna round: R97, puzzle: Exclusion 2)	0.0208		0.0124			
UGUACGAUGCGUGCUGACAUGCGUCGUGCAGCAGGUUUUACAUGAGGAUCACCCAUGUCCUCACUUGCUCGUCUUGU (puzzle: Sensor v3, turn-off variant 2)				0.187	0.257	0.279
UGUACUAUGCGAGCUGACUUGCGUAGUGCAGCAGGUGGAACAUGAGGAUCACCCAUGUCCUCAUUUGCUCGUCUUAU [SL-sv3-2.03 JL mod] (puzzle: Sensor v3, turn-off variant 2)				0.143	0.039	0.0412
UGUCAGAUGGUAGGAUAUCCAUAUCGAGUGACCCUUUCAUAACAUGAGGAUCACCCAUGUCGGUGGGAGAAGGGCCGUACGGUG [salish99_ExNG02_R04_024] (Eterna round: R96, puzzle: Exclusion NG 2)	0.0271	0.0296	0.0362			
